Test results taken from patent US8329409B2, “Methods, kits, and antibodies for detecting parathyroid hormone” (Scantibodies Laboratory, Inc., priority 1999, dated 2012).
Several values for one entry are separate records, joined by “and”; a condition that tells them apart may be missing. Identical values can stand only once. Entries after “also recorded” stand apart in the source; their conditions may differ.

How the values were obtained:
PTX rats = experiment: Calcemic response in parathyroidectomized (PTX) rats; assay type: in vivo, Sprague-Dawley rats
Description: Calcemic response. Normal female Sprague-Dawley rats weighing 225 to 250 g (Harlan, Indianapolis, Ind., USA) were parathyroidectomized (PTX) and fed a 0.02% calcium diet. Rats with a plasma calcium below 7.0 mg/dL after overnight fasting were included in the study. A 20 μg dose of hPTH 1-84 or 7-84 was given intraperitoneally to PTX rats in four doses of 5 μg each at 30-minute intervals (0, 30, 60, and 90 minutes). For control studies, the rats received vehicle (saline solution) alone. Blood was drawn via the tail at 0, 60, 90, and 120 minutes. For competition experiments, rats received an injection of hPTH 7-84 10 minutes prior to each injection of hPTH 1-84. The molar ratio of hPTH 7-84/hPTH 1-84 was 1:1.
Total plasma calcium levels were determined using an atomic absorption spectrophotometer (model 1100B; Perkin Elmer, Norwalk, Conn., USA). Plasma phosphorus levels were determined using an autoanalyzer (COBAS MIRA Plus; Roche, Newark, N.J., USA).

Nichols Intact PTH assay = experiment: Nichols Intact (I-Nichols) PTH assay, recognition of hPTH 1-84 vs hPTH 7-84; assay type: binding; settings: compared with hPTH 1-84
Source text: The present whole IRMA assay was compared to a conventional intact PTH or I-PTH immunoassay, the Allegro Nichols Intact-PTH assay, (which is commercially available and made by Nichols Institute Diagnostics of San Juan Capistrano, Calif., U.S.A.), in both PTH normal persons and those suffering from chronic uremia. This I-PTH immunoassay, detects both PTH7-84 and wPTH (see FIG. 10).
This new Whole PTH two-site assay (Scantibodies Laboratories, Santee, Calif., USA) first employees and antibody that recognizes the 39-84 region of the PTH molecule. This antibody, produced in a goat and affinity purified, is present in relative excess and is immobilized onto polystyrene-coated tubes. The second antibody, also developed in a goat, was also affinity purified and recognizes only the first six amino acids (1 to 6; Ser-Val-Ser-Glu-Ile-Gln) of the human PTH molecule (FIG. 1). This anti-hPTH assay uses synthetic human PTH 1-84 as the standard, with a limit of detection of approximately 1 to 2 pg/mL. Normal values range from 5 to 35 pg/mL. […] The Whole PTH assay was compared with the Intact PTH assay purchases from the Nichols Institute (I-Nichols, San Jan Capistrano, Calif., USA). Synthetic human PTH 1-84 and 7-84 were purchased from Bachem (Torrance, Calif. USA). To assess circulating levels of hPTH 1-84 and non-(1-84) PTH, heparinized blood samples were obtained before dialysis from 28 patients who had been maintained on chronic hemodialysis for 1.2 to 7.5 years and from 14 renal transplant patients (1 to 6 years).

Sprague-Dawley rats = experiment: Phosphaturic response (clearance studies) in rats; assay type: in vivo
Description: Phosphaturic response. Normal female Sprague-Dawley rats weighing 225 to 250 g were prepared for clearance studies under light anesthesia. Polyethylene catheters (PE50) were placed in the femoeral artery for the collection of blood and measurement of blood pressure (Blood Pressure Analyzer; Micro-Medic, Inc., Louisville, Ky., USA), in the femoral vein for infusion and in the bladder for the collection of urine. Rats were placed in Plexiglas® holders and allowed to recover from the effect of the anesthetic for one hour. A priming dose (0.6 mL) of chemical inulin in saline was administered over a period of three minutes to achieve a plasma inulin level between […]. A solution of saline containing inulin to maintain this level and calcium gluconate to deliver 0.5 mg. Calcium was infused at the rate of 0.03 mL/min. After equilibration, a total of four 30-minute urine collections was obtained.
To assess the effect of hPTH 1-84 on phosphate excretion, urine was collected during two control periods, after which rats received a priming bolus of 1.8 μg of hPTH 1-84 followed by a sustained infusion that delivered a total of 8.2 μg of I-PTH. After an equilibration period of 20 minutes, two 30-minute urine collections were obtained. […]
Blood samples and blood pressure measurements were recorded at the beginning and end of the baseline period, at the beginning of the PTH infusion period, and at the end of the study. The concentration of inulin in plasma and urine was determined by the method of Fuhr, Kaczmarczyk, and Kruttgen, Klin Wochenschr, 33:729-730 (1955). The estimation of the glomerular filtration rate (GFR) by inulin clearance and the calculation of the fractional urinary excretion rate of phosphorus (FEP04) were performed in the standard fashion. Blood samples were centrifuged, and plasma phosphorus and calcium concentrations were measured.

ROS/17.2 cells = experiment: cAMP production in osteoblastic cell line ROS/17.2; assay type: cell-based, rat; settings: for effect on cAMP production: 10^-11 to 10^-8 mol/L, no-effect statement at 10^-8 mol/L
Description: Osteoblastic cell line. To compare the biological effects of the two peptides (hPTH 1-84 and 7-84), intracellular cAMP production was measured in the rate osteosarcoma cell line ROS/17.2, which has an osteoblastic phenotype and is known to increase cAMP production in response to PTH. Cells were cultured in Ham's F12 media containing 10% fetal bovine serum. Cells were plated out in 12-well plates at a density of 30,000 cells per well and grown to confluence. Cells were washed three times with KHMS buffer at 37° C. (KCI 4.0 mmol/L, CaCl2 1.25 mmol/L, MgSO4 1.25 mmol/L, KH2PO4 1.2 mmol/L, HEPES 10 mmol/L, NaCl 100 mmol/L, NaHCO3 37 mmol/L, and glucose 10 mmol/L, pH 7.5). cAMP production was measured using 500 μL of KHMS buffer (37°) containing isobutyl-1 methylxantine (IBMX) 1.0 mmol/L and various concentrations (10^−11 to 10^−8 mol/L) of hPTH 1-84 or hPTH 7-84. After a five-minute incubation, 100 μL of 1.8 mol/L pechloric acid were added. After an additional five-minute incubation at room temperature, 100 μL of 3 mol/KHCO3 were added to neutralize the acid. Samples were centrifuged at 3000 rpm for 15 minutes, and the supernatants were assayed for cAMP [26].

[1] = system: Whole PTH assay (goat antibodies to PTH 39-84 and to the first six amino acids of human PTH); experiment: Whole PTH IRMA assay, recognition of hPTH 1-84 vs hPTH 7-84; assay type: binding; settings: hPTH 7-84 at a concentration as high as 10,000 pg/mL
Description: Another method would be to couple the initial wPTH sequence antibody to colloidal solid supports, such as latex particles. More specifically, one can create a signal antibody by iodinating 50 micrograms of affinity purified goat anti-(1-6) PTH antibody (Scantibodies Laboratory, Inc., Santee Calif., U.S.A.) by oxidation with chloramine T, incubation for 25 seconds at room temperature with 1 millicurie of 125-1 radioisotope and reduction with sodium metabisulfate. […] The fractions collected from the desalting column are measured in a gamma counter and those fractions representing the 125-1-goat anti-(1-6) PTH antibody are pooled and diluted to approximately 300,000 D PM (disintegrations per minute) per 100 microliters. […]
To conduct a whole PTH assay of a sample, 200 microliter samples of human serum are added to the solid phase antibody coated tubes. […] Radioactivity on the solid phase, which amount corresponds to the quantity of wPTH present, is measured using a gamma counter. The radioactivity data for the samples is processed by conventional analysis with use of the results from standards and controls and computer software in order that the concentration of whole PTH in the samples may be ascertained. […]

Molecule	decrease in plasma calcium (PTX rats; PTX rats fed a 0.02% calcium diet, 20 μg intraperitoneally in four doses of 5 μg, N=5, P<0.05) [mg/dL]	decrease of the calcemic response induced by hPTH 1-84 alone (PTX rats; hPTH 7-84 given with hPTH 1-84 in a 1:1 molar ratio, PTX rats, N=6, P<0.001) [%]	recognition by the Nichols Intact PTH assay (Nichols Intact PTH assay)	recognition by the Nichols Intact PTH assay (Nichols Intact PTH assay; listed as 7-84)	recognition by the Nichols Intact PTH assay (Nichols Intact PTH assay; listed as PTH7-84)	decrease of the increase in FEP04 (phosphaturia) induced by hPTH 1-84 (Sprague-Dawley rats; co-administration of hPTH 7-84 with hPTH 1-84 (molar ratio 4:1)) [%]	glomerular filtration rate (GFR), treatment period (Sprague-Dawley rats; hPTH 7-84 given simultaneously with hPTH 1-84 (molar ratio 4:1), increased from 2.1±0.1, N=8, P<0.05) [mL/min]	effect on cAMP production (ROS/17.2 cells)	detection by the Whole PTH assay [1]	increase in plasma calcium (PTX rats; PTX rats fed a 0.02% calcium diet, 20 μg intraperitoneally in four doses of 5 μg, N=9, P<0.001) [mg/dL]	glomerular filtration rate (GFR), treatment period (Sprague-Dawley rats; rats infused with hPTH 1-84 alone, control period 1.8±0.3, N=10) [mL/min]	fractional excretion of phosphate (FEP04), treatment period (Sprague-Dawley rats; rats infused with hPTH 1-84 alone, increased from 11.9±2.4, N=10, P<0.001) [%]	intracellular cAMP after treatment (ROS/17.2 cells; 10^-8 mol/L peptide, five-minute incubation, increased from 18.1±1.25 nmol/well, N=6)
hPTH 7-84: Synthetic human PTH 7-84 purchased from Bachem; large non-(1-84) PTH fragment, PTH antagonist (PIN) (peptide) peptide: LMHNLGKHLNSMERVEWLRKKLQDVHNFVALGAPLAPRDAGSQRPRKKEDNVLVESHEKSLGEADKADVNVLTKAKSQ	0.30 ± 0.08	94	does not differentiate	did not discriminate	detects	50.2	2.6 ± 0.2	no effect	undetectable	–	–	–	–
hPTH 1-84: Synthetic human PTH 1-84 purchased from Bachem; complete 84 amino acid human parathyroid hormone (SEQ ID NO: 1) (peptide) SVSEIQLMHNLGKHLNSMERVEWLRKKLQDVHNFVALGAPLAPRDAGSQRPRKKEDNVLVESHEKSLGEADKADVNVLTKAKSQ	–	–	–	–	–	–	–	increased cAMP production in a does-dependent manner; also recorded: increased cAMP production in a dose-dependent manner	detected with a high degree of sensitivity	0.65 ± 0.10	1.8 ± 0.1	27.7±2.4	738±4.13 nmol/well and 738±4.1 nmol/well
